Tests used:
[1] = target: low affinity CTGF receptors on NRK-49F rat fibroblasts (rat); experiment: 125I-rhCTGF binding to cell monolayers, Scatchard / competition with unlabeled CTGF
[2] = target: high affinity CTGF receptors on primary rat articular chondrocytes (rat); experiment: as above
[3] = target: high affinity CTGF receptors on NRK-49F rat fibroblasts (rat); experiment: as above
[4] = target: low affinity CTGF receptors on primary rat articular chondrocytes (rat); experiment: as above
[5] = target: high affinity CTGF receptors on mouse fibroblasts (NTH3T3) (mouse); experiment: 125I-rhCTGF binding to cells, competition binding assay
[6] = target: low affinity CTGF receptors on mouse fibroblasts (NTH3T3) (mouse); experiment: as above

Substance: iodinated recombinant human Connective Tissue Growth Factor (rhCTGF) (from UniProt P29279 27-349) (ligand)
- Kd [1]: 1.1 to 2.2 nM
- Kd [2]: 0.021 nM
- Kd [3]: 0.013 to 0.023 nM
- Kd [4]: 1 nM
- Sites/cell [4]: 150000 sites/cell
- Kd [5]: 0.005 to 0.01 nM
- Sites/cell [5]: 480 sites/cell
- Kd [6]: 1.8 nM
- Sites/cell [6]: 102000 sites/cell
